PMC2858024, “Identification and molecular characterization of a novel flavin-free NADPH preferred azoreductase encoded by azoB in Pigmentiphaga kullae K24” (BMC Biochemistry, 2010)

Experiments:
Experiment in all cases: purified protein
[1] = substrate: NC(=O)C1=CN([C@@H]2O[C@H](COP(=O)(O)OP(=O)(O)OC[C@H]3O[C@@H](n4cnc5c(N)ncnc54)[C@H](OP(=O)(O)O)[C@@H]3O)[C@@H](O)[C@H]2O)C=CC1; conditions: apparent, Orange I 30 μM, potassium phosphate pH 6.8, room temperature (general assay)
[2] = substrate: NC(=O)C1=CN([C@@H]2O[C@H](COP(=O)(O)OP(=O)(O)OC[C@H]3O[C@@H](n4cnc5c(N)ncnc54)[C@H](O)[C@@H]3O)[C@@H](O)[C@H]2O)C=CC1; conditions: apparent, Orange I 30 μM, potassium phosphate pH 6.8, room temperature (general assay)
[3] = substrate: O=S(=O)(O)c1ccc(N=Nc2ccc(O)c3ccccc23)cc1; conditions: apparent, co-substrate NADPH 1 mM, potassium phosphate pH 6.8, room temperature (general assay)

B1: AzoB (Pigmentiphaga kullae) (protein)
chain: MNIAIIGATGNVGSRLVNEALARGHHVTAIARHASRLAARPGLDTLDIDLADGAKLAGALRGKDAAISSVRFATSPLAAVLGPVRQAGLRRLLVVGGAGSLEVAPGAALVDTPTFPAEYKPEALAGRDWLNALRTEKDLDWTFLSPSALFVPGERTGTFRLGGDTLLTAADGRSWISMEDFAIAMLDEVEKPAHTGRRFTVGY
Which results are given for B1?
Km [1]: 1.0 µM; Vmax [1]: 33 µmol/min/mg; Km [2]: 170 µM; Vmax [2]: 17 µmol/min/mg; Km [3]: 3.0 µM; Vmax [3]: 36 µmol/min/mg
